Substitutions are numbered along the chain they refer to.
T1: FcγRIIb (human, UniProt P31994)
T1 chain: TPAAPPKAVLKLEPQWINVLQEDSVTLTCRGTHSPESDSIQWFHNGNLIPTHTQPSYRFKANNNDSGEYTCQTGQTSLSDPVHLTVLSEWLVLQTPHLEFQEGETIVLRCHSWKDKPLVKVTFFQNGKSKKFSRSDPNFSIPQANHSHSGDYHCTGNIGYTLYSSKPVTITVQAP

T2: FcγRIIa 167R (human, UniProt P12318)
T2 chain: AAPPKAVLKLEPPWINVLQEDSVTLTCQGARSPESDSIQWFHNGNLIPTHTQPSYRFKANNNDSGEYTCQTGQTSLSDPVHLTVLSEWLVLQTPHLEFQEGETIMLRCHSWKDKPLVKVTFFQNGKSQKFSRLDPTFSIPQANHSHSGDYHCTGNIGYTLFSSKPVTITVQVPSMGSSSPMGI

T3: OX40 on T cells (human, UniProt P43489)
T3 chain: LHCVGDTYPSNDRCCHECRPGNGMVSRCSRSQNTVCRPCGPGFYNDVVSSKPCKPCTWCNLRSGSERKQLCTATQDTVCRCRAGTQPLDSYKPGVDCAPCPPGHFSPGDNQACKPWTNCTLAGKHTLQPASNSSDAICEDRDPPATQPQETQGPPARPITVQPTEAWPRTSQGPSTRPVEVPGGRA

B1: MAB10 full (antibody)
chain 1: QVTLKESGPALVKPTQTLTLTCSFSGFSLSTSGMGVGWIRQPPGKALEWIAHIWWDDDKYYNTALKTRLTISKDTSKNQVVLTMTNMDPVDTATYYCARIDWDGFAYWGQGTLVTVSSASTKGPSVFPLAPSSKSTSGGTAALGCLVKDYFPEPVTVSWNSGALTSGVHTFPAVLQSSGLYSLSSVVTVPSSSLGTQTYICNVNHKPSNTKVDKKVEPKSCDKTHTCPPCPAPELLGGPSVFLFPPKPKDTLYITREPEVTCVVVDVSHEDPEVKFNWYVDGVEVHNAKTKPREEQYNSTYRVVSVLTVLHQDWLNGKEYKCKVSNKALPAPIEKTISKAKGQPREPQVYTLPPSRDELTKNQVSLTCLVKGFYPSDIAVEWESNGQPENNYKTTPPVLDSDGSFFLYSKLTVDKSRWQQGNVFSCSVMHEALHNHYTQKSLSLSPGK
chain 2: EIVLTQSPATLSLSPGERATLSCRASSSVSYMHWYQQKPGQAPRPWIYATSNRATGIPARFSGSGSGTDYTLTISSLEPEDFAVYYCQQFGAWPWTFGQGTKVEIKRTVAAPSVFIFPPSDEQLKSGTASVVCLLNNFYPREAKVQWKVDNALQSGNSQESVTEQDSKDSTYSLSSTLTLSKADYEKHKVYACEVTHQGLSSPVTKSFNRGEC
B2: GBR 830 (OX40 binding) (antibody, V domains shown)
VH: QVTLKESGPALVKPTQTLTLTCSFSGFSLSTSGMGVGWIRQPPGKALEWIAHIWWDDDKYYNTALKTRLTISKDTSKNQVVLTMTNMDPVDTATYYCARIDWDGFAYWGQGTLVTVSS
VL: EIVLTQSPATLSLSPGERATLSCRASSSVSYMHWYQQKPGQAPRPWIYATSNRATGIPARFSGSGSGTDYTLTISSLEPEDFAVYYCQQWSSNPWTFGQGTKVEIK
B3: GBR 830 full (antibody)
chain 1: not shown
chain 2: B1 chain 2 with F90W, G91S, A92S, W93N
B4: MAB1 full (antibody)
chain 1: not shown
chain 2: B1 chain 2

Legend:
FcγRIIb = molecular target: T1, FcγRIIb; test: SPR
FcRn = FcRn (human, UniProt P55899); test: SPR, pH 7.4
FcγRIIa 167R = molecular target: T2, FcγRIIa 167R; test: SPR
OX40 on T cells [1] = molecular target: T3, OX40 on T cells; test: other, CD8+ T cells, apparent affinity
OX40 on T cells [2] = molecular target: T3, OX40 on T cells; test: other, CD4+ T cells, apparent affinity

Chain of FcRn (P55899 24-297, chain 1 of 2): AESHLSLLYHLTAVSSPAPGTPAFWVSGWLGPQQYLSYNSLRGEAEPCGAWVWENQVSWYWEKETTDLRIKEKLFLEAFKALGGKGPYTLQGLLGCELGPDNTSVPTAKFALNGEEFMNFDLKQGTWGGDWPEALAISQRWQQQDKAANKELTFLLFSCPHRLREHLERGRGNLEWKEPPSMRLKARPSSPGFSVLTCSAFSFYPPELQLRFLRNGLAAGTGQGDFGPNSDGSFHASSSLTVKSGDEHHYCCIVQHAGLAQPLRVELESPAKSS
Chain of FcRn (chain, as listed by the source, chain 2 of 2): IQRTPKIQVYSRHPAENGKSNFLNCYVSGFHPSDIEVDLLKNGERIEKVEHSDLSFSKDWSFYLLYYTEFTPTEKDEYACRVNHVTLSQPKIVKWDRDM

Binder	binding result (FcγRIIb)	binding result (FcRn)	binding result (FcγRIIa 167R)	Kd (OX40 on T cells [1]) [nM]	Kd (OX40 on T cells [2]) [nM]
B1	no binding	no binding	no binding		
B2				3.46	1.25
B3		no binding			
B4		no binding			

Reference: patent publication US12742015 (dated 2026)
